Data as given in patent US20200087367A1 (ACCELERON PHARMA, published 2020).

How the values were obtained:
Test in all cases: SPR, captured hENG-hFc, soluble BMP9; '-' = Binding undetectable
hENG(26-332)-hFc = target: T1, hENG(26-332)-hFc (human, UniProt P17813 26-332)
T1 construct: HEK 293, purified; not shown: linker and human IgG1 Fc domain
T1 sequence: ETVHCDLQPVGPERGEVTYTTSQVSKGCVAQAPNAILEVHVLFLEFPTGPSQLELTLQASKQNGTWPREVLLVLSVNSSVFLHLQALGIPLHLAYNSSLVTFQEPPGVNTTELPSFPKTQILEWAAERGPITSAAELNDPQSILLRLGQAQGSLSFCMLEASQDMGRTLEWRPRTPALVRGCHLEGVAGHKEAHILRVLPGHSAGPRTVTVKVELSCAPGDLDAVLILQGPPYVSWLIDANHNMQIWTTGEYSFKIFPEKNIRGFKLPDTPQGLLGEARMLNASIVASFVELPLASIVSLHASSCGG
Protocol: (§1) SPR methodology was used to screen these hENG-hFc protein variants for high-affinity binding to human BMP9 and BMP10. In these experiments, captured hENG-hFc proteins were exposed to soluble BMP9 or BMP10 at 100 nM each.

hENG(26-329)-hFc = target: T2, hENG(26-329)-hFc (human, UniProt P17813 26-329)
T2 construct: HEK 293, purified; not shown: linker and human IgG1 Fc domain
T2 sequence: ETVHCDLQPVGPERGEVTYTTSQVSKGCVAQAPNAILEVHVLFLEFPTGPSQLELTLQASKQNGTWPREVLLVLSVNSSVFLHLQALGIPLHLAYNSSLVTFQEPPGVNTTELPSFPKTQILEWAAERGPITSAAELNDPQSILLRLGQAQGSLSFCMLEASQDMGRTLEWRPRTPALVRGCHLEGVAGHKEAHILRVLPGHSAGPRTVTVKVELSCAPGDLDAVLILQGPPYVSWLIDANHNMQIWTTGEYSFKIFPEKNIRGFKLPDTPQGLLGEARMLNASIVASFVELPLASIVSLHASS
Protocol: as §1

hENG(26-257)-hFc = target: T3, hENG(26-257)-hFc (human, UniProt P17813 26-257)
T3 construct: HEK 293, purified; not shown: linker and human IgG1 Fc domain
T3 sequence: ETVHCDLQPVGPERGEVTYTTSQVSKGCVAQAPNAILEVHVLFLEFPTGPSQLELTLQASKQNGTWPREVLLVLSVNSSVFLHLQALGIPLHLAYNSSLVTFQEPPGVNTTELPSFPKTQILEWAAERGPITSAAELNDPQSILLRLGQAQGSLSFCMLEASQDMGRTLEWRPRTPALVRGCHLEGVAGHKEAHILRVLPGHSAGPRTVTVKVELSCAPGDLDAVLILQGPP
Protocol: as §1

hENG(360-586)-hFc = target: T4, hENG(360-586)-hFc (human, UniProt P17813 360-586)
T4 construct: HEK 293, purified; not shown: linker and human IgG1 Fc domain
T4 sequence: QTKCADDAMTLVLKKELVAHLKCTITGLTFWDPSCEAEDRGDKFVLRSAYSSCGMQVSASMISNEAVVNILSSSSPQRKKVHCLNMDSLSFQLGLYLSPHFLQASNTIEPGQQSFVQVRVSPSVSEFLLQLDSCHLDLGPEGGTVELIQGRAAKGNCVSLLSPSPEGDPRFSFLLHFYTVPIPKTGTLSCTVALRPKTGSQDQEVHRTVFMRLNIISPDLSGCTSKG
Protocol: as §1

hENG(438-586)-hFc = target: T5, hENG(438-586)-hFc (human, UniProt P17813 438-586)
T5 construct: HEK 293, purified; not shown: linker and human IgG1 Fc domain
T5 sequence: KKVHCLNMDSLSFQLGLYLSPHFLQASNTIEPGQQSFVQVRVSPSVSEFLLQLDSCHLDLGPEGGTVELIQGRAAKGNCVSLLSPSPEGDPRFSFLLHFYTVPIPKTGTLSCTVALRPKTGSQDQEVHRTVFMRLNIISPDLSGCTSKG
Protocol: as §1

hENG(458-586)-hFc = target: T6, hENG(458-586)-hFc (human, UniProt P17813 458-586)
T6 construct: Expressed in COS cells, not purified; not shown: linker and human IgG1 Fc domain
T6 sequence: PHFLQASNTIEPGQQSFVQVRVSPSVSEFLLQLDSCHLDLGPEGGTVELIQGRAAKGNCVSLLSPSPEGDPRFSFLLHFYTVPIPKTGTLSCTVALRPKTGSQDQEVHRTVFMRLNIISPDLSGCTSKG
Protocol: as §1

hENG(133-346)-hFc = target: T7, hENG(133-346)-hFc (human, UniProt P17813 133-346)
T7 construct: HEK 293, purified; not shown: linker and human IgG1 Fc domain
T7 sequence: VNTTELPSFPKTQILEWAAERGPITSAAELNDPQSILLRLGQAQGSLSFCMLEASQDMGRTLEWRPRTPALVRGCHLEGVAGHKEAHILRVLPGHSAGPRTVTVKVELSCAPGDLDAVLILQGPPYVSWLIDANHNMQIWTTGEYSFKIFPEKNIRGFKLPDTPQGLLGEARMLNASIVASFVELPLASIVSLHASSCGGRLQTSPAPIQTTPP
Protocol: as §1

hENG(166-346)-hFc = target: T8, hENG(166-346)-hFc (human, UniProt P17813 166-346)
T8 construct: HEK 293, purified; not shown: linker and human IgG1 Fc domain
T8 sequence: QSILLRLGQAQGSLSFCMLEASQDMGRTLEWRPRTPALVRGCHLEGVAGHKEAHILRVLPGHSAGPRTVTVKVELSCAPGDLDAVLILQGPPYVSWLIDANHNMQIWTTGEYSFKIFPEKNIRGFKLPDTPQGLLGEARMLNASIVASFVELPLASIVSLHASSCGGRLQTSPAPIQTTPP
Protocol: as §1

hENG(458-581)-hFc = target: T9, hENG(458-581)-hFc (human, UniProt P17813 458-581)
T9 construct: Expressed in COS cells, not purified; not shown: linker and human IgG1 Fc domain
T9 sequence: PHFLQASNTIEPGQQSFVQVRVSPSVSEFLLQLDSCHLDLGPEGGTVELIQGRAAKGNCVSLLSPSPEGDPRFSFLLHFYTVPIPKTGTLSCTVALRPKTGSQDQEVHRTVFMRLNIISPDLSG
Protocol: as §1

Measured: binding result

B1: BMP9 (ligand, human, UniProt Q9UK05 320-429, looked up)
chain: SAGAGSHCQKTSLRVNFEDIGWDSWIIAPKEYEAYECKGGCFFPLADDVTPTKHAIVQTLVHLKFPTKVGKACCVPTKLSPISVLYKDDMGVPTLKYHYEGMSVAECGCR
notes: also called hBMP-9; hBMP9
no binding (tested: 100 nM): all assays above
